Laboratory results published in patent publication US20230174624A1, “FERRITIN VARIANTS WITH INCREASED STABILITY, COMPLEXATION ABILITY AND TRANSFERRIN RECEPTOR AFFINITY” (CELLIS AG, priority 2020, published 2023).
Entries after “also recorded” stand apart in the source; their conditions may differ.

Assays:
[1] = test system: breast and ovarian cancer cell lines: MDA-MB 231, Skov3 and 4T1; experiment: Tumour cell viability after co-culture with macrophages carrying doxorubicin packed ferritin; format: cell-based; conditions: 72 h co-culture with macrophages, ferritin cages filled with doxorubicin 1 mg/ml
Description: FIG. 7: Graphs of tumour cell viability after 72 h co-culture with macrophages. The concentration of ferritin cages filled with doxorubicin was the same for each variant of ferritin and was equal to 1 mg/ml.
In vitro experiments have shown that ferritin mutants reveal better cytotoxicity against tumor cells. The doxorubicin packed proteins were inserted into macrophages and then co-cultured with breast and ovarian cancer cell lines: MDA-MB 231, Skov3 and 4T1. The number of viable cells after co-culture was the lowest for the Q11E-Q15E mutant (FIG. 7).

[2] = Native PAGE gel after doxorubicin encapsulation and purification; format: physicochemical; conditions: ferritin-dox after encapsulation, concentrated on 10 or 100 kDa Amicon
Source text: Native PAGE gel has been performed in order to check the size of the protein after encapsulation and purification.

[3] = Native gel after storage in a freezer (-80 degrees Celsius) and thawing; format: physicochemical; conditions: ferritin-dox
siRNA = siRNA association with ferritin (gel); format: binding
Description: 1 ml reaction containing 2 mg Ft and 4 ug siRNA in DPBS, pH lowered to values as indicated (2.5, 3.2, 4.4, 5.6 and 6.8, respectively). Samples were incubated 15 min in RT, then NaOH was added to adjust pH to neutral (pH 7). Non-associated free siRNA was removed by 4 centrifugation steps on Amicons with 100 kDa cut-off.

TfR1 = TfR1 (Homo sapiens, UniProt P02786); experiment: Surface plasmon resonance binding of ferritin to immobilized his-tagged TFRC receptor
Chain of TfR1 (P02786 whole entry, species assumed): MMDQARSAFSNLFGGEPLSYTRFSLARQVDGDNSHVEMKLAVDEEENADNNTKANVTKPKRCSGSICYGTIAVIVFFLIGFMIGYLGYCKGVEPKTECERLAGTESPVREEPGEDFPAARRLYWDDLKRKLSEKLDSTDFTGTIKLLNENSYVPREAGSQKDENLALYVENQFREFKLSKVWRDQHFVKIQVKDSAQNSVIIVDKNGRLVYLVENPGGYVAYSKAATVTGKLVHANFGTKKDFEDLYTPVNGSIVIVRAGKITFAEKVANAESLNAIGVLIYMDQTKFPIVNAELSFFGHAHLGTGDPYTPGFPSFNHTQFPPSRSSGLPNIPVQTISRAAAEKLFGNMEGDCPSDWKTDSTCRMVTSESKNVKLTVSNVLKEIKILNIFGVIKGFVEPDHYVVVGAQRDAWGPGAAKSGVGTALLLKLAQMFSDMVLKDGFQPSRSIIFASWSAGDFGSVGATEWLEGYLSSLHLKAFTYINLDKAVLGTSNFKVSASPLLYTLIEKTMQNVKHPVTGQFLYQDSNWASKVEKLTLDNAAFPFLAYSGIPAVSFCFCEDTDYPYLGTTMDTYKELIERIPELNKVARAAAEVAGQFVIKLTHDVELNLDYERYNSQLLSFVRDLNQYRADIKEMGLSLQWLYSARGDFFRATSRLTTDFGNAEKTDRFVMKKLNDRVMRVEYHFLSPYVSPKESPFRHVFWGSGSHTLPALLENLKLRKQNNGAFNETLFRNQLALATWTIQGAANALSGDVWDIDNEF
Description: FIG. 2: Sensorgrams corresponding to the interaction between the immobilized his-tagged TFRC receptor and human ferritin. Panel A: mutant Q11E, panel B: wild type. X-axis: time (s). The same amount of receptor was trapped onto the chip surface (see methods section for details). Five different analyte concentrations (0.0625, 0.125, 0.250, 0.5 and 1 mg/ml) were used. For all analyte concentrations measured, the amount of ferritin bound is higher for the Q11E mutant than for wild-type ferritin.
Binding of wild type and Q11E mutant ferritin to TfR1 was analysed by surface plasmon resonance.

Substance	number of viable cells after co-culture [1]	forms on native gel (24-mers versus aggregates) [2]	stability of cages after storage [3]	association with siRNA (siRNA; incubated in pH 2.4 and 3.2)	association with siRNA (siRNA; incubated in pH range 4.4 to 6.8)	binding affinity to the CD71 receptor relative to wild type (TfR1)	rate of release from its complex with CD71 receptor (TfR1)	KD (TfR1; global fit, simple 1:1 binding mode, versus wild type)	amount of ferritin bound (TfR1; versus wild-type ferritin, analyte 0.0625-1 mg/ml)
Q11E-Q15E: human H ferritin mutant Q11E Q15E (TRBD SEQ ID NO. 12); in examples 3-8 also K54E, K72E, K87Q, K144E, C91S, C103S (MTTASTSQVRENYHEDSEAA; listed as Homo sapiens)	lowest	present as 24-mers (homogeneous cages)	still present as 24-mers (homogeneous cages) after storage	–	–	–	–	–	–
Q11E: human H ferritin mutant Q11E (TRBD SEQ ID NO. 05); in examples 3-8 also K54E, K72E, K87Q, K144E, C91S, C103S, C131S (MTTASTSQVRENYHQDSEAA; listed as Homo sapiens)	–	present as 24-mers (homogeneous cages)	still present as 24-mers (homogeneous cages) after storage; also recorded: reduces the presence of aggregates and allows the storage of ferritin cages with doxorubicin in the freezer	not	associated with siRNA	at least fourfold	slow rate of release	lower KD value	higher
